# Measured values: the supplement of paper PMC10567573
# B1: FCHO1 (parent)
# chain: FTSSPSPFSSSSPENVEDSGLDSP
# Variants of: B1
# Assay: protein stability index of a GFP-peptide fusion (GPS, HEK-293T) (PSI 1-6); higher = more stable
# Conditions: c terminus: a fixed tail appended
# 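Also: lentivirally expressed fusions sorted by FACS into six bins by GFP to DsRed ratio, PSI derived from sequencing read proportions per bin multiplied by bin number.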
row,Variant,protein stability index
1,FTSQPSPFSSSSPENVEDSGLDSP [S4Q],2.14
2,FTSFPSPFSSSSPENVEDSGLDSP [S4F],2.9
3,FTSEPSPFSSSSPENVEDSGLDSP [S4E],3.14
4,FTSHPSPFSSSSPENVEDSGLDSP [S4H],1.91
5,FTSMPSPFSSSSPENVEDSGLDSP [S4M],1.73
6,FTSTPSPFSSSSPENVEDSGLDSP [S4T],1.93
7,FTSIPSPFSSSSPENVEDSGLDSP [S4I],2.19
8,FTSKPSPFSSSSPENVEDSGLDSP [S4K],2.13
9,FTSSPSPFSSSSPENQEDSGLDSP [V16Q],1.91
10,FTSSPSPFSSSSPENPEDSGLDSP [V16P],1.6
11,VTSSPSPFSSSSPENVEDSGLDSP [F1V],5.51
12,DTSSPSPFSSSSPENVEDSGLDSP [F1D],5.61
13,CTSSPSPFSSSSPENVEDSGLDSP [F1C],5.43
14,FTSSPSPFSSSSPENVEDSGLRSP [D22R],2.04
15,FTSSPSPFSSSSPENVEDSGRDSP [L21R],2.21
16,FTSSPSPFSSSSPENVEDSGVDSP [L21V],2.01
17,FTSSPSPFSSSSPENVEDSGCDSP [L21C],2.23
18,FTSSPSPFSSSSPENVIDSGLDSP [E17I],1.67
19,FTSSPSPFSSSSPENVADSGLDSP [E17A],1.5
20,FTSSPSPFSSSSPENVFDSGLDSP [E17F],2.21
21,FTSSPSPFSSSSPENVTDSGLDSP [E17T],2.26
22,FTSSPSPFSSSSPENVEDSGLDSY [P24Y],2.35
23,FTSSPSPFSSSSPENVEDSGLDSA [P24A],1.38
24,FTSSPSPFSSSSPENVEDSGLDSV [P24V],2.02

row,Variant,protein stability index
1,FTSSPSPFSSSSPEYVEDSGLDSP [N15Y],1.6
2,FTSSPSPFSSSSPEVVEDSGLDSP [N15V],2.46
3,FTSSPSPFSSSSPEMVEDSGLDSP [N15M],2.57
4,FTSSPSPFSSSSPEIVEDSGLDSP [N15I],2.05
5,FTSSPIPFSSSSPENVEDSGLDSP [S6I],2.22
6,FTSSPKPFSSSSPENVEDSGLDSP [S6K],2.67
7,FTSSPGPFSSSSPENVEDSGLDSP [S6G],2.02
8,FTSSPAPFSSSSPENVEDSGLDSP [S6A],2.37
9,FTSSPRPFSSSSPENVEDSGLDSP [S6R],2.21
10,FTESPSPFSSSSPENVEDSGLDSP [S3E],2.79
11,FTMSPSPFSSSSPENVEDSGLDSP [S3M],2.38
12,FTLSPSPFSSSSPENVEDSGLDSP [S3L],3.8
13,FTFSPSPFSSSSPENVEDSGLDSP [S3F],2.6
14,FTSSPSPFSSSSPANVEDSGLDSP [E14A],1.96
15,FTSSPSPFSSSSPHNVEDSGLDSP [E14H],1.95
16,FTSSPSPFSSSSPSNVEDSGLDSP [E14S],2.17
17,FTSSPSPFSSSSPQNVEDSGLDSP [E14Q],2.31
18,FTSSPSPFFSSSPENVEDSGLDSP [S9F],2.34
19,FTSSPSPFGSSSPENVEDSGLDSP [S9G],2.2
20,FTSSPSPFNSSSPENVEDSGLDSP [S9N],2.08
21,FTSSPSPFTSSSPENVEDSGLDSP [S9T],2.29
22,FTSSPSPFDSSSPENVEDSGLDSP [S9D],2.67
23,FTSSPSPFHSSSPENVEDSGLDSP [S9H],1.84
24,FTSSPSPFSQSSPENVEDSGLDSP [S10Q],1.92

row,Variant,protein stability index
1,FTSSPSPFSGSSPENVEDSGLDSP [S10G],2.02
2,FTSSPSPFSKSSPENVEDSGLDSP [S10K],1.88
3,FWSSPSPFSSSSPENVEDSGLDSP [T2W],3.64
4,FISSPSPFSSSSPENVEDSGLDSP [T2I],2.14
5,FNSSPSPFSSSSPENVEDSGLDSP [T2N],3.96
6,FTSSPSPFSSSSPENVEDSGLDYP [S23Y],1.37
7,FTSSPSPFSSSSPENVEDSGLDPP [S23P],2.27
8,FTSSPSPFSSSSPENVEDSVLDSP [G20V],1.64
9,FTSSPSPFSSSSPENVEDSRLDSP [G20R],1.91
10,FTSSPSPFSSSSPENVEDSYLDSP [G20Y],2.33
11,FTSSPSPFSSSSPENVEDSPLDSP [G20P],1.86
12,FTSSPSPFSSSSPENVEDSALDSP [G20A],1.88
13,FTSSPSPFSSSSPENVEDSHLDSP [G20H],2.43
14,FTSSESPFSSSSPENVEDSGLDSP [P5E],2.04
15,FTSSASPFSSSSPENVEDSGLDSP [P5A],1.88
16,FTSSDSPFSSSSPENVEDSGLDSP [P5D],2.43
17,FTSSQSPFSSSSPENVEDSGLDSP [P5Q],2.16
18,FTSSFSPFSSSSPENVEDSGLDSP [P5F],2.32
19,FTSSPSPFSSQSPENVEDSGLDSP [S11Q],2.06
20,FTSSPSPFSSISPENVEDSGLDSP [S11I],2.23
21,FTSSPSPFSSDSPENVEDSGLDSP [S11D],2.75
22,FTSSPSPFSSCSPENVEDSGLDSP [S11C],2.65
23,FTSSPSPFSSRSPENVEDSGLDSP [S11R],2.01
24,FTSSPSPFSSSSPENVEDKGLDSP [S19K],1.95

row,Variant,protein stability index
1,FTSSPSPFSSSSPENVEDPGLDSP [S19P],2.26
2,FTSSPSPFSSSSPENVEDFGLDSP [S19F],2.24
3,FTSSPSPFSSSSPENVEDAGLDSP [S19A],2.04
4,FTSSPSPFSSSSPENVEDEGLDSP [S19E],1.81
5,FTSSPSPFSSSSPENVEDTGLDSP [S19T],2.34
6,FTSSPSFFSSSSPENVEDSGLDSP [P7F],1.93
7,FTSSPSPFSSSNPENVEDSGLDSP [S12N],2.37
8,FTSSPSPFSSSEPENVEDSGLDSP [S12E],1.7
9,FTSSPSPFSSSIPENVEDSGLDSP [S12I],2.12
10,FTSSPSPFSSSAPENVEDSGLDSP [S12A],1.74
11,FTSSPSPFSSSTPENVEDSGLDSP [S12T],2.01
12,FTSSPSPFSSSWPENVEDSGLDSP [S12W],1.98
13,FTSSPSPSSSSSPENVEDSGLDSP [F8S],5.08
14,FTSSPSPRSSSSPENVEDSGLDSP [F8R],4.29
15,FTSSPSPISSSSPENVEDSGLDSP [F8I],4.48
16,FTSSPSPFSSSSYENVEDSGLDSP [P13Y],2.04
17,FTSSPSPFSSSSAENVEDSGLDSP [P13A],1.77
18,FTSSPSPFSSSSLENVEDSGLDSP [P13L],2.21
19,FTSSPSPFSSSSPENVEWSGLDSP [D18W],1.92
20,FTSSPSPFSSSSPENVEFSGLDSP [D18F],2.26
21,FTSSPSPFSSSSPENVESSGLDSP [D18S],1.82
22,FTSSPSPFSSSSPENVEKSGLDSP [D18K],1.91
